Experimental data from PMC9864931 (Vaccines, 2022).

Molecular target: E. coli-produced Wuhan-Hu1 RBD (receptor binding domain of the SARS-CoV-2 spike protein, a.a. 319-542) (SARS-CoV-2 (Wuhan-Hu1), UniProt P0DTC2)
Experiment: ELISA
Details: both partners purified

B1: mAb WRAIR-2057 (antibody, V domains shown)
VH: EVQLVQSGAEVKKPGESLKISCKGSGYSFISYWIAWVRQMPGKGLEWMGIIYPGDSDTTYSPSFQGQVTISADKSISTAYLQWSSLKASDTAIYYCARLLYYSDSSPLDSWGQGTLVTVSS
VL: DIQMTQSPSSLSASVGDRVTITCRASQSISTYLNWYQQKPGKAPNLLIYAASSLQSGVPSRFSGSGSGTDFTLTISSLQPEDFATYYCQQSHSTPRTFGPGTKVDIK
Does B1 bind?
Result: binds
